Source: publication PMC4718742

Molecular target: human CrkII (1–304) (human) (UniProt P46108)
Test: NMR titration

Chain of human CrkII (1–304) (human) (P46108 whole entry): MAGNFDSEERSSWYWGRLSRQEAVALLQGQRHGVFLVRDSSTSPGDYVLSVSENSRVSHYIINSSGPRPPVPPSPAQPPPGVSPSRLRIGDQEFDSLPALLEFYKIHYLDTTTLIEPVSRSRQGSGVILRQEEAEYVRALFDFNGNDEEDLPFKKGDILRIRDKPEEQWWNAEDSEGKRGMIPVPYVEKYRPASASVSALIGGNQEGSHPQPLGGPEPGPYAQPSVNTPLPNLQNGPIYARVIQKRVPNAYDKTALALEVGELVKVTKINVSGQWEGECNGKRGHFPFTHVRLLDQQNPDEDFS

Kd: 15 µM
Substance: human CypA (1–165) (from UniProt P62937 1-165) (enzyme; other documents disagree on this pair)
